What all share (type): biochemical
The nature of series [1]: PCR cycling of dCTP in the presence of PEF or Pfu DNA polymerase, HPLC. To be noted: 10 mM dCTP, 0.5 ng PEF/μl.
A further series addresses T1, Pfu DNA polymerase (Pyrococcus furiosus, UniProt P61875).
T1 sequence (P61875 1-775): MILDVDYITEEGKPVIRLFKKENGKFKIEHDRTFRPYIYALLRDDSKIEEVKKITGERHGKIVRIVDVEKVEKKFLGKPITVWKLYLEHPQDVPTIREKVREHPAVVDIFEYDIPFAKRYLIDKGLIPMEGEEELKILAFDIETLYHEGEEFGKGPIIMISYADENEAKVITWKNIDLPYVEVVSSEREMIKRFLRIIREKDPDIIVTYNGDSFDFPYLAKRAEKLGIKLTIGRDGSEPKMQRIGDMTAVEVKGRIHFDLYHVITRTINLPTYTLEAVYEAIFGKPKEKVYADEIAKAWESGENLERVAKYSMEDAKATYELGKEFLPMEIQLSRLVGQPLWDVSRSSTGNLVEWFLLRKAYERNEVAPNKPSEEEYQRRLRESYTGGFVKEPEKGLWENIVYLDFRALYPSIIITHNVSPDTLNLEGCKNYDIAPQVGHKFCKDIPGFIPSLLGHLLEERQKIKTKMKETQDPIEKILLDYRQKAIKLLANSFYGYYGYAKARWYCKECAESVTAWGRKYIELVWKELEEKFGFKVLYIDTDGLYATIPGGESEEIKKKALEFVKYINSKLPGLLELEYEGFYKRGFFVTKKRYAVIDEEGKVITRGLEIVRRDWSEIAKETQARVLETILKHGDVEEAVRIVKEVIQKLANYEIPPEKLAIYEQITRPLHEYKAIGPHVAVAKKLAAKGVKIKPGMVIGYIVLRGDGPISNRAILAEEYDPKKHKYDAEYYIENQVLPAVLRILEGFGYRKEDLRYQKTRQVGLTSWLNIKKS
The experiment in a line: 0.9 kb α1-antitrypsin PCR with unrelated dU-containing or control oligonucleotide. To be noted: 0.8 pmole of dU containing primer; 7 ng PEF.

Series [2] is described as follows: Reverse phase HPLC analysis of dUTP conversion. To be noted: 72° C. As for the experimental part:
(§1) The similarity of P45 to dCTP deaminases prompted us to test whether dCTP or other nucleotide triphosphates were substrates of PEF/P45. PEF was incubated with dCTP or dUTP and the reaction products were separated by reverse phase HPLC. Reaction mixtures (50 μl) containing 1× cloned Pfu polymerase buffer, 10 mM dCTP or dUTP, and 700 ng PEF (or 5 μl of cloned p45 (˜100 ng) or nothing (neg. control)) were incubated at 72° C. for 1 hour. The samples were injected on a […] Waters Delta-pak C-18 column (300 angstrom/15 μm), equilibrated in 50 mM triethylammonium acetate, pH (7.0) (A). Products were eluted with acetonitrile (B) at 2 ml/min. using the following gradient: 0% B for 5 minutes, 0-10% B over 20 minutes. Absorbence of the eluate was monitored with a photodiode array detector, and peak areas were integrated at 260 nm.
In a separate Western assay, samples from Thermus thermophilis were run out on an SDS-PAGE gel and probed with the rP45 antisera. […] The PEF as dUTPase activity in these samples was further confirmed by a dUTP conversion assay employing reverse phase HPLC.

Series [3] can be described thus: Reverse phase HPLC analysis, reactivity with other nucleotides. As for the experimental part:
as §1
In addition to dUTP, dCTP was also found to serve as a substrate for PEF (FIG. 17). The product of the PEF+dCTP reaction appeared to be dCMP, based upon its retention time and absorbence maxima. Although PEF utilizes dCTP, dUTP is the preferred substrate of PEF/P45. In the example shown, only 16.6% of the dCTP was converted in 1 hour under the same conditions which converted 100% dUTP (FIG. 17, panel B). […] No reactivity with PEF was detected for the following nucleotides: dGTP, dATP, dTTP, dCMP, dUMP, and rUTP under the conditions used.

Series [4] can be described thus: PPi detection with dATP in place of dUTP. To be noted: 1 hour at 72° C. As for the experimental part: […] The presence of PPi in the reaction mixture was then quantified using Sigma's Enzymatic Determination of Pyrophosphate kit (Sigma Product No. P7275). The kit utilizes a coupled enzyme system whereby two moles of NADH are oxidized to NAD^+ for each mole of PPi present in the reaction mixture. The oxidation of NADH is monitored spectrophotometrically at 340 nm. […] The reactions that contained 1800 ng of PEF produced twice as much PPi as those that contained 900 ng of PEF.

The nature of series [5]: Pi detection after reaction with dUTP (method of Heinonen and Lahti). To be noted: 900 or 1800 ng PEF, 5 mM dUTP, 1 hour at 72° C. On the procedure:
We tested whether inorganic pyrophosphate (PPi) or inorganic phosphate (Pi) was generated during the PEF-catalyzed conversion of dUTP to dUMP (FIG. 16). To assess whether Pi was produced, 900 or 1800 ng of PEF was incubated in the presence of 5 mM dUTP in 1× cloned Pfu polymerase buffer for 1 hour at 72° C. The reaction mixture was subsequently analyzed for the presence of Pi using the method of Heinonen and Lahti (Heinonen; J. K. and Lahti, R. J. (1981) Anal. Biochem. 113: 313-317). […] One hundred percent (100%) conversion corresponds to the production of 500 nmol of Pi, if Pi is a product of the reaction. […] The assay for Pi was sensitive enough to detect as little as about 50 nmoles of Pi.

B1: PEF: polymerase enhancing factor complex purified from Pyrococcus furiosus; predominant components P50 and P45 (protein)
chain 1: MLHHVKLIYATKSRKLVGKKIVXXXPGSIAALDVKACEGLIRHGAEVHAVMSEAATKIIHPYAWNLPTGNPVITEITGFIEHVELAGEHENKADLILVCPATANTISKIACGIDDTPVTTVVTTAFPHIPIMIAPAMHETMYRHPIVRENIERLKKLGVEFIGPRIEEGRAKVASIDEIVYRVIKKLHKKTLEGKRVLVTAGATREYIDPIRFITNASSGKMGVALAEEADFRGAVTLIRTKGSVKAFRIRKIKLKVETVEEMLSAIENELRSKKYDVVIMAAAVSDFRPKIKAEGKIKSGRSITIELVPXNPKIIDRIKEIQPNVFLVGFKAETSKEKLIEEGKRQIERAKADLVVGNTLEAFGSEENQVVLIGRDFTKELPKMKKRELAERIWDEIEKXLS
chain 2: MLLPDWKIRKEILIEPFSEESLQPAGYDLRVGREAFVKGKLIDVEKEGKVVIPPREYALILTLERIKLPDDVMGDMKIRSSLAREGVIGSFAWVDPGWDGNLTLMLYNASNEPVELRYGERFVQIAFIRLEGPARNPYRGNYQGSTRLAFSKRKKL
modifications: not fully specified; X: residue not identified in the source
notes: polymerase enhancing factor complex purified from Pyrococcus furiosus; predominant components P50 and P45
In the case of B1, in series [1], the “dCDP after PCR cycling in presence of PEF” value stood at 19%, the “dCMP after PCR cycling in presence of PEF” value amounted to 8%, the “dCTP after PCR cycling in presence of PEF” value stood at 73% and the “dUTP after PCR cycling in presence of PEF” value was “no detectable dUTP”. Further, in the series with Pfu DNA polymerase, the “amplification in reactions containing dU oligo with PEF” value is “a small amount of amplification product is observed”. For the same molecule, in series [2] (10 mM dUTP, one hour), the “dUTP peak after incubation” value came to 0.1 % total peak area and the “new peak eluting at 4.400 minutes (dUMP)” value is 98 % total peak area. Moreover, in series [2] (1 hour, 700 ng PEF), the dUTP converted worked out at 100%. In series [3], the “reactivity with dGTP, dATP, dTTP, dCMP, dUMP, rUTP” value was “No reactivity”. In addition, the “PPi detected with dATP in place of dUTP” value in series [4] is on record as “No PPi was detected”. Further, the “Pi formed during reaction with dUTP” value in series [5] is listed as “no Pi was detected”.

Source of the values: patent US7943358B2, “Polymerase enhancing factor (PEF) extracts, PEF protein complexes, isolated PEF protein, and methods for purifying and identifying” (Agilent Technologies, Inc., priority 1997, dated 2011).
